Reference: patent publication US20020193308A1

Target: polyclonal antibodies (lot RF29), raised in rabbits against natural isolate of UK114
Experiment: competition ELISA: soluble antigen titrated against rabbit antiserum (1:10,000) on plates coated with natural UK114; apparent Ka is the reciprocal of the antigen concentration at the A50 point

Ka: 4.9e+08 M⁻¹
B1: recombinant UK114 (E.coli-derived, SEQ ID NO:1) (protein)
chain: SSLVRRIISTAKAPAAIGPYSQAVLVDRTIYISGQLGMDPASGQLVPGGVVEEAKQALTNIGEILKAAGCDFTNVVKATVLLADINDFSAVNDVYKQYFQSSFPARAAYQVAALPKGGRVEIEAIAVQGPLTTASV
